Assay results as given in the supplement of paper PMC11136658.

System: peptide library, one residue held at a place counted from the Y acceptor
Test: relative phosphorylation of the sub-library (ratio to the mean residue at this position); higher = residue favoured
Summary of the method: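 Every value reflects phosphorylation relative to the mean randomized residue. The sum of the 18 randomized residues, or 16 in the Ser/Thr-free library, served to normalize intensities at each position, which were then multiplied by that number. Intensities came from phosphorimaging with ImageQuant of biotinylated Tyr-centred peptides captured on streptavidin membranes after 90 min with purified recombinant kinases and 50 μM ATP plus γ-32P-ATP.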

Chain of WEE1, construct: aa215-end, human (P30291 215-646, looked up): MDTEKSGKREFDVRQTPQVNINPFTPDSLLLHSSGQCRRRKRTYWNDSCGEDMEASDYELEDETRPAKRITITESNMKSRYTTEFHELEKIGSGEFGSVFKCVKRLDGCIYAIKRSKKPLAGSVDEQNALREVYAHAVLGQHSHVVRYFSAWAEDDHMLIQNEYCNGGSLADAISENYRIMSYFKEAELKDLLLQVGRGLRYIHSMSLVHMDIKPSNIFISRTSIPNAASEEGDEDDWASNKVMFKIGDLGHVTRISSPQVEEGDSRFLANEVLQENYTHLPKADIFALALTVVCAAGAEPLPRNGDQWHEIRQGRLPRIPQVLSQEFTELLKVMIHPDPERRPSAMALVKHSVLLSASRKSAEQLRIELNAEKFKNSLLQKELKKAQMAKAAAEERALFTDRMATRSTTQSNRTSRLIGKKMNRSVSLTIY
Chain of TYRO3, construct: aa455-end, human (Q06418 455-890, looked up): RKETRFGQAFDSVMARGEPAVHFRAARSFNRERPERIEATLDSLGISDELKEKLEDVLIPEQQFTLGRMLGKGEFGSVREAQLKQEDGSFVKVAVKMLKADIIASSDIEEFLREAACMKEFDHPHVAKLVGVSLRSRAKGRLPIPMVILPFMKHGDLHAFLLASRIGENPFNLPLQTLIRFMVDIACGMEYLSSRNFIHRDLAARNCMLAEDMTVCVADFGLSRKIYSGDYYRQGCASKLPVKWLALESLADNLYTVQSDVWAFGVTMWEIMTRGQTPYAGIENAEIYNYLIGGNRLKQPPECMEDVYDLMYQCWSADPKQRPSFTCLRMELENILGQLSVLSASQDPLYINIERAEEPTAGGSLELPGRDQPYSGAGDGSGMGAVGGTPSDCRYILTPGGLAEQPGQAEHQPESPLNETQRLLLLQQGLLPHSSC

TYRO3, construct: aa455-end, human (from UniProt Q06418)
relative phosphorylation
Details | at +1 | at +2 | at +3 | at +4 | at +5 | at -1 | at -2 | at -3 | at -4 | at -5
A fixed | 1.64 | 0.682 | 0.632 | 0.906 | 1.04 | 0.893 | 0.982 | 1 | 1.15 | 0.987
D fixed | 0.676 | 0.549 | 0.322 | 0.681 | 0.669 | 0.66 | 0.935 | 1.1 | 1.03 | 1.01
E fixed | 1.19 | 0.767 | 0.252 | 0.729 | 0.592 | 0.56 | 1.04 | 1.28 | 1.19 | 0.874
F fixed | 1.07 | 1.28 | 1.44 | 1.11 | 0.885 | 1.23 | 0.653 | 0.819 | 0.883 | 0.866
G fixed | 0.816 | 0.424 | 0.71 | 1.2 | 1.26 | 0.524 | 1.3 | 1.18 | 1.35 | 1.2
H fixed | 1.12 | 0.864 | 1.36 | 1.16 | 0.955 | 1.4 | 1.09 | 1.09 | 0.966 | 1.05
I fixed | 0.991 | 1.12 | 1.58 | 0.796 | 0.758 | 1.63 | 0.772 | 0.656 | 0.826 | 0.854
K fixed | 0.534 | 1.1 | 1.03 | 1.18 | 1.39 | 0.719 | 1.14 | 0.998 | 1.04 | 1.16
L fixed | 0.938 | 1.36 | 1.19 | 0.932 | 0.867 | 1.88 | 0.858 | 0.752 | 0.843 | 0.892
M fixed | 1.26 | 1.22 | 1.18 | 1.04 | 0.868 | 1.09 | 0.7 | 0.866 | 0.864 | 0.964
N fixed | 0.544 | 0.901 | 0.626 | 0.843 | 1.01 | 1.03 | 1.25 | 1.16 | 0.956 | 1.19
P fixed | 0.412 | 0.657 | 0.864 | 1.18 | 1.62 | 0.821 | 1.09 | 1.27 | 1.3 | 1.19
Q fixed | 1.13 | 0.962 | 0.795 | 1.07 | 0.936 | 0.837 | 1.23 | 1.06 | 1.22 | 1.06
R fixed | 0.597 | 1.13 | 1.2 | 1.28 | 1.33 | 0.655 | 1.04 | 0.959 | 1.06 | 1.19
S fixed | 1.25 | 0.799 | 0.718 | 1.01 | 1.06 | 0.849 | 1.28 | 1.2 | 0.866 | 0.977
T fixed | 1.2 | 0.996 | 0.808 | 0.85 | 0.982 | 1.07 | 1.13 | 1.09 | 0.775 | 0.884
V fixed | 1.37 | 1.21 | 1.26 | 0.876 | 0.831 | 1.16 | 0.868 | 0.755 | 0.803 | 0.785
W fixed | 1.25 | 1.98 | 2.04 | 1.16 | 0.946 | 1 | 0.649 | 0.764 | 0.888 | 0.868
pThr fixed | 1.04 | 0.889 | 0.217 | 0.396 | 0.43 | 0.664 | 0.826 | 0.977 | 0.895 | 0.854
pTyr fixed | 0.911 | 1.28 | 0.324 | 0.56 | 0.399 | 1.06 | 0.954 | 1.2 | 1.12 | 0.96

WEE1, construct: aa215-end, human (from UniProt P30291)
relative phosphorylation
Details | at +1 | at +2 | at +3 | at +4 | at +5 | at -1 | at -2 | at -3 | at -4 | at -5
A fixed | 0.635 | 0.703 | 0.557 | 0.811 | 0.707 | 0.72 | 0.888 | 0.817 | 0.926 | 1.01
D fixed | 0.354 | 0.437 | 0.425 | 0.604 | 0.562 | 0.619 | 0.593 | 0.846 | 0.849 | 0.957
E fixed | 0.445 | 0.474 | 0.464 | 0.697 | 0.657 | 0.467 | 0.742 | 0.901 | 1.22 | 0.881
F fixed | 0.997 | 1.33 | 0.969 | 0.816 | 0.746 | 2.25 | 0.867 | 1.26 | 1.13 | 1.14
G fixed | 1.03 | 0.713 | 0.776 | 0.921 | 0.88 | 0.693 | 1.54 | 1.06 | 1.24 | 1.15
H fixed | 0.739 | 0.685 | 0.93 | 0.927 | 1.05 | 1.04 | 0.85 | 0.748 | 0.809 | 0.762
I fixed | 1 | 1.04 | 1.2 | 0.781 | 0.881 | 1.15 | 0.943 | 1.24 | 1.21 | 1.03
K fixed | 1.44 | 1.9 | 2.15 | 2 | 1.9 | 0.93 | 1.04 | 1.1 | 0.986 | 1.1
L fixed | 0.815 | 0.945 | 0.806 | 0.752 | 0.833 | 1.61 | 0.866 | 1.11 | 1.05 | 1.15
M fixed | 0.892 | 1.03 | 0.922 | 1.11 | 0.9 | 1.2 | 0.741 | 1.06 | 0.977 | 1.01
N fixed | 0.952 | 0.875 | 0.74 | 0.762 | 0.89 | 1.45 | 1 | 0.817 | 0.747 | 0.872
P fixed | 0.598 | 0.573 | 0.636 | 0.758 | 0.755 | 0.753 | 0.84 | 1 | 0.995 | 0.956
Q fixed | 0.913 | 0.856 | 0.772 | 0.98 | 0.804 | 0.564 | 0.733 | 0.691 | 0.945 | 0.88
R fixed | 4.18 | 2.37 | 3.44 | 2.25 | 2.98 | 0.975 | 1.54 | 1.21 | 1.47 | 1.15
V fixed | 0.819 | 0.941 | 0.93 | 0.751 | 0.675 | 1.11 | 0.924 | 1.12 | 0.907 | 1.02
W fixed | 0.904 | 1.37 | 0.896 | 1.23 | 0.812 | 1.17 | 0.897 | 1.22 | 1.18 | 1.37
pThr fixed | 0.975 | 0.775 | 0.584 | 0.671 | 0.815 | 0.866 | 1.12 | 1.3 | 0.896 | 1.06
pTyr fixed | 1.06 | 1.05 | 0.703 | 0.834 | 0.882 | 7.21 | 1.38 | 1.76 | 1.33 | 1.25
